Changes are numbered by the printed parent chain. Numbers in names are those of the source.
B1: H183/L072 VL E27aG (antibody, name in Kabat numbering, V domains shown)
VH: QVQLVESGGGLVQPGRSLRLSCAASGFTFSNAWMHWVRQAPGKGLEWVAQIKDKGNAYAAYYAPSVKGRFTISRDDSKNSIYLQMNSLKTEDTAVYYCHYVHYASASTVLPAFGVDAWGQGTTVTVSS
VL: DIVMTQSPLSLPVTPGEPASISCQASQGLVHMNRNTYLHWYQQKPGQAPRLLIYKVSNRFPGVPDRFSGSGSGTDFTLKISRVEAEDVGVYYCAQGTSVPFTFGQGTKLEIK
B2: H183/L072 VL E27aW (antibody, name in Kabat numbering, V domains shown)
VH: B1 VH
VL: B1 VL with G28W
B3: H183/L072 VL F96H (antibody, name in Kabat numbering, V domains shown)
VH: B1 VH
VL: B1 VL with G28E, F101H
B4: H183/L072 VL F96S (antibody, name in Kabat numbering, V domains shown)
VH: B1 VH
VL: B1 VL with G28E, F101S
B5: H183/L072 VL F55E (antibody, name in Kabat numbering, V domains shown)
VH: B1 VH
VL: B1 VL with G28E, F60E
B6: H183/L072 VL E27aT (antibody, name in Kabat numbering, V domains shown)
VH: B1 VH
VL: B1 VL with G28T
B7: H183/L072 VL E27aR (antibody, name in Kabat numbering, V domains shown)
VH: B1 VH
VL: B1 VL with G28R
B8: H183/L072 VL E27aK (antibody, name in Kabat numbering, V domains shown)
VH: B1 VH
VL: B1 VL with G28K
B9: H183/L072 VL F96D (antibody, name in Kabat numbering, V domains shown)
VH: B1 VH
VL: B1 VL with G28E, F101D
B10: H183/L072 VL E27aQ (antibody, name in Kabat numbering, V domains shown)
VH: B1 VH
VL: B1 VL with G28Q
B11: H183/L072 VL F96Q (antibody, name in Kabat numbering, V domains shown)
VH: B1 VH
VL: B1 VL with G28E, F101Q
B12: H183/L072 VL E27aY (antibody, name in Kabat numbering, V domains shown)
VH: B1 VH
VL: B1 VL with G28Y
B13: H183/L072 VL F55K (antibody, name in Kabat numbering, V domains shown)
VH: B1 VH
VL: B1 VL with G28E, F60K
B14: H183/L072 VL G91Q (antibody, name in Kabat numbering, V domains shown)
VH: B1 VH
VL: B1 VL with G28E, G96Q
B15: H183/L072 VL F55Q (antibody, name in Kabat numbering, V domains shown)
VH: B1 VH
VL: B1 VL with G28E, F60Q
B16: H183/L072 VL F55G (antibody, name in Kabat numbering, V domains shown)
VH: B1 VH
VL: B1 VL with G28E, F60G
B17: H183/L072 VL F55P (antibody, name in Kabat numbering, V domains shown)
VH: B1 VH
VL: B1 VL with G28E, F60P
B18: H183/L072 VL F55T (antibody, name in Kabat numbering, V domains shown)
VH: B1 VH
VL: B1 VL with G28E, F60T
B19: H183/L072 VL G91E (antibody, name in Kabat numbering, V domains shown)
VH: B1 VH
VL: B1 VL with G28E, G96E
B20: H183/L072 VL F55R (antibody, name in Kabat numbering, V domains shown)
VH: B1 VH
VL: B1 VL with G28E, F60R
B21: H183/L072 VL F55W (antibody, name in Kabat numbering, V domains shown)
VH: B1 VH
VL: B1 VL with G28E, F60W
B22: H183/L072 VL E27aI (antibody, name in Kabat numbering, V domains shown)
VH: B1 VH
VL: B1 VL with G28I
B23: H183/L072 VL E27aN (antibody, name in Kabat numbering, V domains shown)
VH: B1 VH
VL: B1 VL with G28N
B24: H183/L072 VL G91D (antibody, name in Kabat numbering, V domains shown)
VH: B1 VH
VL: B1 VL with G28E, G96D
B25: H183/L072 VL E27aH (antibody, name in Kabat numbering, V domains shown)
VH: B1 VH
VL: B1 VL with G28H
B26: H183/L072 VL E27aV (antibody, name in Kabat numbering, V domains shown)
VH: B1 VH
VL: B1 VL with G28V
B27: H183/L072 VL E27aM (antibody, name in Kabat numbering, V domains shown)
VH: B1 VH
VL: B1 VL with G28M
B28: H183/L072 VL E27aS (antibody, name in Kabat numbering, V domains shown)
VH: B1 VH
VL: B1 VL with G28S
B29: H183/L072 VL F55L (antibody, name in Kabat numbering, V domains shown)
VH: B1 VH
VL: B1 VL with G28E, F60L
B30: H183/L072 VL G91S (antibody, name in Kabat numbering, V domains shown)
VH: B1 VH
VL: B1 VL with G28E, G96S
B31: H183/L072 VL G91H (antibody, name in Kabat numbering, V domains shown)
VH: B1 VH
VL: B1 VL with G28E, G96H
B32: H183/L072 VL F55D (antibody, name in Kabat numbering, V domains shown)
VH: B1 VH
VL: B1 VL with G28E, F60D
B33: H183/L072 VL F96T (antibody, name in Kabat numbering, V domains shown)
VH: B1 VH
VL: B1 VL with G28E, F101T
B34: H183/L072 VL G91K (antibody, name in Kabat numbering, V domains shown)
VH: B1 VH
VL: B1 VL with G28E, G96K
B35: H183/L072 VL F55N (antibody, name in Kabat numbering, V domains shown)
VH: B1 VH
VL: B1 VL with G28E, F60N
B36: H183/L072 VL F96K (antibody, name in Kabat numbering, V domains shown)
VH: B1 VH
VL: B1 VL with G28E, F101K
B37: H183/L072 VL F96E (antibody, name in Kabat numbering, V domains shown)
VH: B1 VH
VL: B1 VL with G28E, F101E
B38: H183/L072 VL F55I (antibody, name in Kabat numbering, V domains shown)
VH: B1 VH
VL: B1 VL with G28E, F60I
B39: H183/L072 VL F55H (antibody, name in Kabat numbering, V domains shown)
VH: B1 VH
VL: B1 VL with G28E, F60H
B40: H183/L072 VL F55M (antibody, name in Kabat numbering, V domains shown)
VH: B1 VH
VL: B1 VL with G28E, F60M
B41: H183/L072 VL F55A (antibody, name in Kabat numbering, V domains shown)
VH: B1 VH
VL: B1 VL with G28E, F60A
B42: H183/L072 VL F55S (antibody, name in Kabat numbering, V domains shown)
VH: B1 VH
VL: B1 VL with G28E, F60S
B43: H183/L072 VL E27aP (antibody, name in Kabat numbering, V domains shown)
VH: B1 VH
VL: B1 VL with G28P
B44: H183/L072 VL F55V (antibody, name in Kabat numbering, V domains shown)
VH: B1 VH
VL: B1 VL with G28E, F60V
B45: H183/L072 VL E27aL (antibody, name in Kabat numbering, V domains shown)
VH: B1 VH
VL: B1 VL with G28L

Target: T1, Human CD3eg linker (human)
T1 construct: Single-chain construct; also called recombinant human CD3
T1 chain: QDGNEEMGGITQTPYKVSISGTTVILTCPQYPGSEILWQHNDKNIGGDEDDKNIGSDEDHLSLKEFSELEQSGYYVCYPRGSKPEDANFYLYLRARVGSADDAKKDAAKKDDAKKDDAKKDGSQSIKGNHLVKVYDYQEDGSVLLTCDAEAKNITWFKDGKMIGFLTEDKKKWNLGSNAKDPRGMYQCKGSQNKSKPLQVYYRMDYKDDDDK
Test: SPR; fold vs parent H183/L072

Row | fold change of affinity | Binder
1 | 1.4 fold | B1
2 | 1.1 fold | B2
3 | 0 fold | B3
4 | 0 fold | B4
5 | 3.4 fold | B5
6 | 1.3 fold | B6
7 | 1.2 fold | B7
8 | 1.1 fold | B8
9 | 0 fold | B9
10 | 1.2 fold | B10
11 | 0 fold | B11
12 | 1.2 fold | B12
13 | 8.3 fold | B13
14 | 0 fold | B14
15 | 2.9 fold | B15
16 | 8.1 fold | B16
17 | 8.1 fold | B17
18 | 4.2 fold | B18
19 | 0 fold | B19
20 | 4 fold | B20
21 | 0.2 fold | B21
22 | 1.1 fold | B22
23 | 1.1 fold | B23

Row | fold change of affinity | Binder
24 | 0 fold | B24
25 | 1.4 fold | B25
26 | 1 fold | B26
27 | 1.2 fold | B27
28 | 1.3 fold | B28
29 | 2.9 fold | B29
30 | 0 fold | B30
31 | 0 fold | B31
32 | 6.1 fold | B32
33 | 0 fold | B33
34 | 0 fold | B34
35 | 3.9 fold | B35
36 | 0 fold | B36
37 | 0 fold | B37
38 | 3.4 fold | B38
39 | 7.4 fold | B39
40 | 3.6 fold | B40
41 | 7.2 fold | B41
42 | 6.6 fold | B42
43 | 1 fold | B43
44 | 4.4 fold | B44
45 | 1.2 fold | B45

— patent publication US20210388087A1 (Chugai, published 2021)
